The values below come from patent publication US6972324 (Boehringer Ingelheim, dated 2005).

Substitutions are numbered along the chain they refer to.

Assay [1] has as its target glutathione-S-transferase fusion protein containing domains v3-v10 of human CD44 (human) (UniProt P16070). Nature of the assay: SPR (BIAcore 2000), GST/CD44v3-v10 immobilized on CM5 chip. For orientation: In SPR one partner is held on a chip, and binding of the other changes the refractive index at the surface.
Assay [2] addresses CD44v6 on human tumour cells (human) (UniProt P16070). Nature of the assay: immunoreactivity assay, 186Re-MAG3-labelled MAb on fixed UM-SCC-11B cells.
The target in assay [3] is glutathione-S-transferase fusion protein containing domains v3-v10 of human CD44 (human) (UniProt P16070). Nature of the assay: SPR (BIAcore 2000), GST/CD44v3-v10 immobilized on CM5 chip, MAb injected at 8-67 nM.
The target of assay [4] is CD44v6 on human tumour cells (human) (UniProt P16070). Nature of the assay: immunoreactivity assay, 131I-labelled IgG on glutaraldehyde-fixed UM-SCC-11B cells, experiment 1.
The target is the same in assay [5]. Nature of the assay: immunoreactivity assay, 131I-labelled IgG on fixed UM-SCC-11B cells, linear extrapolation to infinite antigen excess, experiment 1.
The target is the same in assay [6]. Nature of the assay: immunoreactivity assay, 125I-labelled IgG on glutaraldehyde-fixed UM-SCC-11B cells, experiment 2.
For assay [7] the target is unchanged. Nature of the assay: competitive cell ELISA on fixed A431 cells against mMAb BIWA 1; IC50 relative to BIWA 2.
Assay [8] shares this target. Nature of the assay: immunoreactivity assay, 125I-labelled IgG on fixed UM-SCC-11B cells, linear extrapolation to infinite antigen excess, experiment 2.
Assay [9] addresses T1, glutathione-S-transferase fusion protein containing domains v3-v10 of human CD44 (human, UniProt P16070 267-604).
T1 construct: also called GST/CD44v3-v10; recombinant antigen; not shown: glutathione-S-transferase (GST) fusion partner
T1 sequence (looked up): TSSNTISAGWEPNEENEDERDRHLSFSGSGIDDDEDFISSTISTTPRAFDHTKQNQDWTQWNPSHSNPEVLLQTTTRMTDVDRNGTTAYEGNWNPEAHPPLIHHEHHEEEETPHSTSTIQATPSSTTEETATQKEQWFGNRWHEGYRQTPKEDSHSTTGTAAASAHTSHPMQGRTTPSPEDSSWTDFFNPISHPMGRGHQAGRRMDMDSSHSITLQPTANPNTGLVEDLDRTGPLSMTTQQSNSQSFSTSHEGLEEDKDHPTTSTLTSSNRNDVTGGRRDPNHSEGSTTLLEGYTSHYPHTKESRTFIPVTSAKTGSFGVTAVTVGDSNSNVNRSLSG
Nature of the assay: ratio of affinities (SPR on GST/CD44v3-v10, Table 1).

For assay [10], the target named is T1, glutathione-S-transferase fusion …. Nature of the assay: SPR (BIAcore 2000), GST/CD44v3-v10 immobilized on CM5 chip. The protocol: (§1) Evaluation of antibody affinity. Measurement of kinetic and affinity constants using recombinant antigen was performed on a BIAcore 2000 system (BIAcore AB, Uppsala, Sweden). A glutathione-S-transferase fusion protein containing domains v3–v10 of human CD44 (GST/CD44v3–v10; 20 μg/ml) was immobilized on a CM5 sensor chip by the amine coupling method according to the manufacturer's instructions, using 10 mM sodium acetate pH 5.0 as coupling buffer. 35 μl of MAb at various concentrations (8–67 nM) in HBS (10 mM HEPES, pH 7.4, 150 mM NaCl, 3.4 mM EDTA, 0.05% BLAcore surfactant P20) were injected over the antigen-coated surface at a flow rate of 5 μL/min. Dissociation of the MAb was assessed for 5 minutes in buffer flow (HBS). Between two analyses, the surface of the chip was regenerated with a single pulse of 15 μl 30 mM HCl. Analysis of the data and calculation of the kinetic constants were performed with BIAcore's BIAevaluation software, version 2.1. Association rates (k_a), dissociation rates (k_d), and dissociation constants (K_d) were assessed for all antibodies.
(§2) In vitro binding characteristics of the CD44v6specific MAbs. The binding affinities of the five MAbs were analyzed using recombinant antigen as well as human tumor cell lines. Kinetic and affinity constants were evaluated by surface plasmon resonance using GST/CD44v3–v10 as immobilized antigen.

Assay [11] has the same target. Nature of the assay: SPR (BIAcore 2000), GST/CD44v3-v10 immobilized on CM5 chip, MAb injected at 8-67 nM. On the procedure: as §1, §2
Assay [12] deals with CD44v6 on human tumour cells (human) (UniProt P16070). Nature of the assay: immunoreactivity assay, 131I-labelled IgG on glutaraldehyde-fixed UM-SCC-11B cells, experiment 2.
For assay [13] the target is unchanged. Nature of the assay: immunoreactivity assay, 131I-labelled IgG on glutaraldehyde-fixed UM-SCC-11B cells, experiment 3.
Assay [14] has the same target. Nature of the assay: immunoreactivity assay of clinical 99mTc-/186Re-MAG3-labelled BIWA 4 batches on fixed UM-SCC 11B cells.
The target is the same in assay [15]. Nature of the assay: immunoreactivity assay, 131I-labelled IgG on fixed UM-SCC-11B cells, linear extrapolation to infinite antigen excess, experiment 2.
Assay [16] shares this target. Nature of the assay: immunoreactivity assay, 131I-labelled IgG on fixed UM-SCC-11B cells, linear extrapolation to infinite antigen excess, experiment 3.
Assay [17] has the same target. Nature of the assay: competitive cell ELISA on fixed A431 cells; inhibition of binding of mMAb BIWA 1, detected with peroxidase-conjugated anti-mouse Fc; unit taken from the concentration axis.
The target is the same in assay [18]. Nature of the assay: immunoreactivity assay, 125I-labelled IgG on glutaraldehyde-fixed UM-SCC-11B cells, experiment 3.
Assay [19] shares this target. Nature of the assay: immunoreactivity assay, 125I-labelled IgG on fixed UM-SCC-11B cells, linear extrapolation to infinite antigen excess, experiment 3.

By Kd is commonly meant the free concentration of one partner at which half of the binding sites on the other are occupied at equilibrium, for simple one-to-one binding. Read a low Kd as higher affinity. As a reminder, the koff is a measure of how fast the partners let go of each other. By kon is commonly meant the second-order rate constant of association. Read a high kon as fast association. In [1], mMAb U36 (antibody) had a Kd relative to murine BIWA 1 of 35 fold. Also, in assay [2], the immunoreactive fraction was 75%. In [3], this molecule yielded a Kd of 11 nM, a koff of 0.00017 s⁻¹ and a kon of 15000 M⁻¹ s⁻¹. In assay [4], this molecule registered a Binding to 5 × 10^6 cells (%) of 59.7%. The Binding Extrapolated (%) (immunoreactive fraction) in [5] is 87.4%.
On to cMAb BIWA 2 (antibody), for which the Kd relative to murine BIWA 1 in assay [1] was found to be 0.7 fold. Further, the immunoreactive fraction in [2] was found to be 75%. In assay [3], this molecule came in with a dissociation constant (Kd) of 0.24 nM, a koff of 4.1e-05 s⁻¹ and a kon of 170000 M⁻¹ s⁻¹. Besides, the Binding to 5 × 10^6 cells (%) in [6] was determined as 80.5%. Also, the relative IC50 values in [7] turned out to be 1. Besides, in assay [8], the Binding Extrapolated (%) (immunoreactive fraction) was 79.9%.

B1: hMAb BIWA 4 (antibody, human IgG1, kappa, V domains shown)
VH: EVQLVESGGGLVKPGGSLRLSCAASGFTFSSYDMSWVRQAPGKGLEWVSTISSGGSYTYYLDSIKGRFTISRDNAKNSLYLQMNSLRAEDTAVYYCARQGLDYWGRGTLVTVSS
VL: EIVLTQSPATLSLSPGERATLSCSASSSINYIYWYQQKPGQAPRLLIYLTSNLASGVPARFSGSGSGTDFTLTISSLEPEDFAVYYCLQWSSNPLTFGGGTKVEIKR
notes: CDR-grafted humanised version of BIWA 1 without murine framework residues; human IgG1/kappa; in the clinical study as 99mTc- or 186Re-MAG3 conjugate; also called Humanized BIWA 4; bivatuzumab
By IC50 is commonly meant the concentration needed to halve the response being measured. The low end stands for inhibition by little substance, the high end for a need for much substance. As to B1, in assay [9], the “fold lower affinity than cMAb BIWA 2” value turned out to be 14 fold and the “fold lower affinity than hMAb BIWA 8” value was 4 fold. Moreover, the “Kd relative to murine BIWA 1” value in assay [10] was determined as 10.5 fold. The molecule further returned an immunoreactive fraction in [2] of 75%. Also, in [11], the Kd is 3.4 nM, the koff stood at 0.00022 s⁻¹ and the kon worked out at 65000 M⁻¹ s⁻¹. The Binding to 5 × 10^6 cells (%) in assay [12] was 77.4%. In addition, the Binding to 5 × 10^6 cells (%) in [13] came to 77.3%. For the same molecule, the relative IC50 values in assay [7] is 44. The molecule also showed an immunoreactive fraction in [14] of 80%. Besides, the Binding Extrapolated (%) (immunoreactive fraction) in assay [15] was 82.3%. For the same molecule, the Binding Extrapolated (%) (immunoreactive fraction) in assay [16] is 74.5%. The same molecule had an IC50 in assay [17] of 8.01 µg/mL.

B2: hMAb BIWA 8 (antibody, human IgG1, kappa, V domains shown)
VH: B1 VH
VL: B1 VL with Y35L, L45I
notes: CDR-grafted humanised version of BIWA 1 with two murine residues in light chain framework 2; human IgG1/kappa; also called Humanized BIWA 8
As for B2, the “Kd relative to murine BIWA 1” value in assay [10] was determined as 2.6 fold. Besides, in assay [2], the immunoreactive fraction amounted to 75%. In assay [11], this molecule displayed a Kd of 0.84 nM, an off-rate constant (koff) of 6.3e-05 s⁻¹ and an association rate constant (kon) of 75000 M⁻¹ s⁻¹. Further, the Binding to 5 × 10^6 cells (%) in assay [18] was 91.8%. In assay [7], this molecule registered a relative IC50 values of 2. In addition, the Binding Extrapolated (%) (immunoreactive fraction) in assay [19] is 92.1%. Also, the 50% inhibitory concentration (IC50) in assay [17] was determined as 0.335 µg/mL.
